3 substances from publication PMC7802950, “Characteristics and expression patterns of six α-galactosidases in cucumber (Cucumis sativus L.)” (PLoS ONE, 2021) can be followed below.

Holding throughout (details): pH and temperature of Km assay not stated
Data set [1] concerns T1, OC[C@H]1O[C@H](OC[C@H]2O[C@H](O[C@]3(CO)O[C@H](CO)[C@@H](O)[C@@H]3O)[C@H](O)[C@@H](O)[C@@H]2O)[C@H](O)[C@@H](O)[C@H]1O.
T1 construct: coding region in pAcHLT, baculovirus/Sf9 insect cells; 6xHis tag removed by thrombin
Description: Lineweaver-Burk plot, hydrolysis. The class given is biochemical, Cucumis sativus.

The test system of data set [2] is T2, OC[C@H]1O[C@H](OC[C@H]2O[C@H](OC[C@H]3O[C@H](O[C@]4(CO)O[C@H](CO)[C@@H](O)[C@@H]4O)[C@H](O)[C@@H](O)[C@@H]3O)[C@H](O)[C@@H](O)[C@H]2O)[C@H](O)[C@@H](O)[C@H]1O.
T2 construct: coding region in pAcHLT, baculovirus/Sf9 insect cells; 6xHis tag removed by thrombin
Description: Lineweaver-Burk plot, hydrolysis. The class given is biochemical, Cucumis sativus.

The subject of data set [3] is O=[N+]([O-])c1ccc(O[C@H]2O[C@H](CO)[C@H](O)[C@H](O)[C@H]2O)cc1. Description: purified protein.

Sequence of CsGAL1 (Cucumis sativus) (chain, as listed by the source): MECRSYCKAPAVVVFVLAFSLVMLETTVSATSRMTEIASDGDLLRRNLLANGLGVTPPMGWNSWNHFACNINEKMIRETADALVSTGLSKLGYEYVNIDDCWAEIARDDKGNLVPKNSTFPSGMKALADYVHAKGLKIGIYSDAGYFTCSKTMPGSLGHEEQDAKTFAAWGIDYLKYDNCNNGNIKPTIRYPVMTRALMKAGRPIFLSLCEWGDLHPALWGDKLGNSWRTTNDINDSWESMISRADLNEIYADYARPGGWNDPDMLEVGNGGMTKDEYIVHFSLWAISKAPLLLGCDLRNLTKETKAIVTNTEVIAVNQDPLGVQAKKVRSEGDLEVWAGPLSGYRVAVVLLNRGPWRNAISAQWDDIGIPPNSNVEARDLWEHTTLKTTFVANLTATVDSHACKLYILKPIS
Sequence of CsGAL3 (Cucumis sativus) (chain, as listed by the source): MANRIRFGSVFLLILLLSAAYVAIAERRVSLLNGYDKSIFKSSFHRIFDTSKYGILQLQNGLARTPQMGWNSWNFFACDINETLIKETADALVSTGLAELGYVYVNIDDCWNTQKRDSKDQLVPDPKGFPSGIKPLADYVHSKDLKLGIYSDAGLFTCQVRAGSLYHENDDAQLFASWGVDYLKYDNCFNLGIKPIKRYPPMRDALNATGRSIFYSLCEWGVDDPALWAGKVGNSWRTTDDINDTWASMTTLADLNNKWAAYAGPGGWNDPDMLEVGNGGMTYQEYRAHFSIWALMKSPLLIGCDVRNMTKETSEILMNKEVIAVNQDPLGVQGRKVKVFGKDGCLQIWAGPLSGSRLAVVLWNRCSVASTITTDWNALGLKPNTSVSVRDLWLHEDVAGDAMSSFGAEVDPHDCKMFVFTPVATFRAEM
Sequence of CsGAL2 (Cucumis sativus) (chain, as listed by the source): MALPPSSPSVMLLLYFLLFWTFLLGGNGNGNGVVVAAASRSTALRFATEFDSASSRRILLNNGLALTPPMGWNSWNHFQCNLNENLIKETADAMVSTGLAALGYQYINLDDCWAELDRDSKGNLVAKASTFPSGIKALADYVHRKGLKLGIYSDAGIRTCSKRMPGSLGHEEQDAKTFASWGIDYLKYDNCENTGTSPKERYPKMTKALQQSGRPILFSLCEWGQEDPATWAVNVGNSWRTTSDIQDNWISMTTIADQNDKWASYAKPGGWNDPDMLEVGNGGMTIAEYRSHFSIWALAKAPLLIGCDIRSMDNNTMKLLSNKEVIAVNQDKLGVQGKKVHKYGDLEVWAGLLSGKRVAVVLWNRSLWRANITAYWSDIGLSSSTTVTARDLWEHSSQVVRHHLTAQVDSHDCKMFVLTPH

As a reminder, the Km is the substrate concentration at which the rate is half of its maximum. As to CsGAL1 (Cucumis sativus), the results for the Km in data set [1], in data set [2] and in data set [3] were 4.71 ± 0.85 mM, 12.3 ± 1.92 mM and 0.89 ± 0.12 mM, respectively.

In the case of CsGAL2 (Cucumis sativus), the Km came out at 5.63 ± 0.67 mM in data set [1], 11.85 ± 2.05 mM in data set [2] and 1.35 ± 0.23 mM in data set [3].

On to CsGAL3 (Cucumis sativus), for which the values for the Km in data set [1], in data set [2] and in data set [3] were 3.24 ± 0.70 mM, 18.92 ± 2.56 mM and 0.99 ± 0.10 mM, respectively.
